Experimental data reported in patent US20190119357A1, “MESSENGER RIBONUCLEIC ACIDS FOR THE PRODUCTION OF INTRACELLULAR BINDING POLYPEPTIDES AND METHODS OF USE THEREOF” (ModernaTX, Inc., priority 2015, published 2019).
“Also recorded” adds a separate entry of the source.

Legend:
BCL-2 = molecular target: T1, BCL-2 (Homo sapiens, UniProt P10415); assay: Co-immunoprecipitation after mRNA transfection; type: binding; conditions: within two hours after mRNA transfection
T1 construct: endogenous in cells; host or cells: cells transfected with SQT-BH3 mRNA (HeLa by context)
T1 sequence (P10415 whole entry): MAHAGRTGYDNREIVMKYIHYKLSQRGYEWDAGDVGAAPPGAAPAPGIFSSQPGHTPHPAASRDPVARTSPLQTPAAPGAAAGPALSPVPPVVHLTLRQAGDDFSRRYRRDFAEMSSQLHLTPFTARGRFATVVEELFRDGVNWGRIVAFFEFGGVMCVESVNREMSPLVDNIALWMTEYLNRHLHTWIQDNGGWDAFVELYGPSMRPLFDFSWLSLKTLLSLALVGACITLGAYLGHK

BCL-XL = molecular target: T2, BCL-XL (Homo sapiens, UniProt Q07817); assay: Co-immunoprecipitation after mRNA transfection; type: binding; conditions: within two hours after mRNA transfection
T2 construct: endogenous in cells; host or cells: cells transfected with SQT-BH3 mRNA (HeLa by context)
T2 sequence (Q07817 whole entry): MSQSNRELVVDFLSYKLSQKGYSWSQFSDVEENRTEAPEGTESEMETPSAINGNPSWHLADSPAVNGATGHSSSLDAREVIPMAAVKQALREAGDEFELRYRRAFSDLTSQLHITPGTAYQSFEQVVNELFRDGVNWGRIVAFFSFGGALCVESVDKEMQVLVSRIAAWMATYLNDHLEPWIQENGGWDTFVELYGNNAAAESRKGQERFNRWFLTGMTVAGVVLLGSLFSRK

MCL-1 = molecular target: T3, MCL-1 (Homo sapiens, UniProt Q07820); assay: Co-immunoprecipitation in lysates of transfected HeLa cells; type: binding; conditions: lysates of HeLa cells transfected with mRNAs
T3 construct: performed in lysates of HeLa cells transfected with mRNAs encoding SQT-BH3 constructs; endogenous in cells; host or cells: HeLa
T3 sequence (Q07820 whole entry): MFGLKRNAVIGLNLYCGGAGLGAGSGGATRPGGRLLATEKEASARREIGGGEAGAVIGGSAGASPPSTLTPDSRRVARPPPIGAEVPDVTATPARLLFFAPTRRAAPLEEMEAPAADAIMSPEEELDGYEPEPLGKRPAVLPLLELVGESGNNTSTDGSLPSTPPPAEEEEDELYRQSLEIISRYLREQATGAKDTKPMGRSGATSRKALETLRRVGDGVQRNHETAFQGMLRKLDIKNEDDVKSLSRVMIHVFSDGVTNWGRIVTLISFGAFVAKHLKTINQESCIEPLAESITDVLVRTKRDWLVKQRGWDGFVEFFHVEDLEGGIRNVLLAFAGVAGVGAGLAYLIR

primary hepatocytes [1] = assay: Apoptosis induction by MC3 LNP-formulated mRNAs in primary hepatocytes cultured in vitro; type: cell-based
[2] = test system: Orthotopic Hep3B xenografts; assay: Efficacy in SCID mice bearing orthotopic Hep3B xenografts; type: in vivo; conditions: orthotopic Hep3B study, over the course of the study
Experimental: LNPs comprising the cationic lipid MC3 were tested using the optimal percentage of PEG-lipid and optimal PEG length (1.5% DSPE, C18, as described in Example 10), for in vivo targeted delivery of SQT-PUMA-BH3 in a model of Orthotopic Hep3B xenografts.
SCID mice were anesthetized, a transverse incision was made below the xiphoid and Hep3B cells (2×10^6) were injected into the upper left lobe of the liver, followed by surgical closure of the abdomen and skin. Tumor growth was measured by whole body bioluminescent imaging (BLI) in anaesthetized animals following SC injection of 150 mg/kg D-Luciferin, in an imaging chamber (Spectrum CT). Bioluminescence was measured as total flux (photons/second) of the entire animals. On Day 8 following tumor implantation when tumor BLI reached an average of 3.17×10^8 photons/sec (range 12.37×10^7−1.38×10^9 photons/sec), animals were randomized into study groups and treated weekly over a three week period (Days 9, 16 and 23) with PBS IV (Group 1), SQT 3 mg/kg IV (Group 2), mmRNA encoding SQT-PUMA-BH3 (comprising a miR122 binding site) weekly at 0.75 mg/kg (Group 3), 1.5 mg/kg (Group 4) or 3 mg/kg IV (Group 5; 12 animals per group). One week following the final dose, animals were euthanized and tumors excised and weighed.

[3] = test system: primary mouse hepatocytes; assay: Sorafenib combination in primary mouse hepatocytes; type: cell-based; conditions: SQT-PUMA-BH3 205 pM or 1100 pM, SQT-Bad-BH3 549 pM or 1100 pM, sorafenib 0-10 uM
Experimental: Similar combination experiments were performed with primary mouse hepatocytes, treated with SQT-PUMA-BH3 (205 pM or 1100 pM) or SQT-Bad-BH3 (549 pM or 1100 pM) in combination with sorafenib (0-10 μM). […] Thus, normal primary liver cells are spared by the combination treatment, indicating the combination treatment can selectively kill liver cancer cells over normal liver cells.

Hep3B SC tumors = assay: Combination with sorafenib in SCID mice bearing Hep3B SC tumors; type: in vivo; conditions: mmRNA with miR122 binding site, 1.5 mg/kg IV weekly alone, three weeks, end of study
Experimental: SCID mice bearing Hep3B SC tumors (tumor size range 140-227 mm^3; average=183 mm^3) were dosed over a three week period with a combination of 0.5% methyl cellulose daily and SQT IV at 1.5 mg/kg alone weekly (Days 1, 8 and 15; Group 1), Sorafenib (in 0.5% methyl cellulose) at 10 mg/kg orally daily alone (Group 2), mmRNA encoding SQT-PUMA-BH3 (comprising a miR122 binding site) weekly at 1.5 mg/kg IV alone (Group 3) or a combination of mmRNA encoding SQT-PUMA-BH3 (with miR122 binding site) at 1.5 mg/kg IV weekly with sorafenib at 10 mg/kg orally daily (Group 4; 10 animals per group).

Hep3B cells = assay: Sorafenib combination, YOYO-3 apoptosis on IncuCyte ZOOM; type: cell-based
Experimental: To determine the effect of SQT-BH3 constructs in combination with the protein tyrosine kinase inhibitor Sorafenib on liver cells, 20,000 Hep3B cells/well in a 96 well plate were treated with increasing amounts of sorafenib tosylate (Selleck Chemicals) and transfected with LNPs containing SQT-PUMA-BH3 (68 pM) or SQT-Bad-BH3 (550pM).

[4] = Survival of mice treated with MC3 LNP formulations of mRNA with or without miR-122 binding site; type: in vivo
Description: Negative controls included mRNA encoding SQT alone or SQT with a miR-122 binding site. Constitutively active caspase 6 was used as a positive control. An LNP containing a non-translatable factor IX cap 0 mRNA was used to control for mRNA and lipid effects that might be independent of the proteins encoded by the modified mRNAs. […] This dose was 10 times greater than a dose of mRNA encoding SQT-PUMA-BH3 that killed 40% of mice.

[5] = test system: human hepatocellular carcinoma (Hep G2) cells; assay: Cell death and morphology after mRNA transfection; type: cell-based
Description: A representative graph of the apoptotic ability of the SQT-BH3 constructs is shown in FIG. 2, showing the cell killing capacity of the SQT-BH3 constructs in Hep G2 cells.

systemic TF1a tumors = assay: Repeat study in the TF1a-SCID model with survival endpoint; type: in vivo
Experimental: In this repeat study, tumor growth inhibition (TGI) was the primary efficacy over the first 4 weeks of the study and survival was the primary efficacy endpoint over the second 4 weeks of the study. […] Animals were dosed as follows: PBS (0.1 ml/20 g one time per week) IV (Group 1), cytarabine IV at 2 mg/kg three times per week (Group 2), LNPs containing mRNA encoding Green Fluorescent Protein (GFP) at 3 mg/kg one time per week (Group 3) and LNPs containing mRNA encoding SQT-PUMA-BH3 (comprising a miR122 binding site) at 3 mg/kg one time per week (Group 4).
Mice were dosed intravenously for four weeks, with animals in Group 4 being dosed for eight weeks (i.e., weekly dosing up to eight weeks).
In this repeat study, tumor growth inhibition (TGI) was again used as a primary endpoint to quantify efficacy with BLI being used as a surrogate for tumor burden. Bioluminescence Imaging (BLI) was measured weekly out to at least Day 61 post disease induction. The mean BLI results at Day 33 and Day 61 are shown in FIGS. 23A and 23B, respectively.
The survival of the mice over eight weeks was monitored and the percent survival of the mice in the study was assessed.

primary hepatocytes [6] = conditions: 10uM sorafenib tosylate, 24 hours after treatment
Experimental: Controls were an empty SQT construct (“SQT-dummy”), a non-targeting siRNA and PBS. For treatment of Hep3B cells, 20,000 Hep3B cells/well per plated in 96-well plates. At Day 1, some wells were transfected with siMCL1 (Dharmacon, ON-TARGETplus Human MCL1 (4170) siRNA-SMARTpool, # L-004501-00-0005) or non-targeting siRNA (ON-TARGETplus Non-targeting Control Pool, # D-001810-10-05). […] 24 hours after treatment, YOYO®-3 iodide (Life Technologies) viability dye was added to each well and cell death was measured on an IncuCyte ZOOM® using YOYO-3 fluorescence as a readout (=“Apoptosis”). For treatment of primary hepatocytes, 18,000 mouse hepatocytes (Gibco) were seeded in each well of a 96-well plate. At Day 1, some wells were transfected with siMCL1 (Dharmacon, SMARTpool: ON-TARGETplus Mc11 siRNA, # L-062229-00-0005) or non-targeting siRNA (ON-TARGETplus Non-targeting Control Pool, # D-001810-10-05). […] 24 hours after treatment, Caspase 3/7 reagent (EssenBio) apoptosis dye was added to each well and cell death was measured on an IncuCyte ZOOM® using the caspase 3/7 reagent fluorescence as a readout (=“Apoptosis”).

B1: SQT-PUMA-BH3: mRNA (SEQ ID NO: 49, FLAG) encoding SQT scaffold with PUMA BH3 domain in N-terminus, fully modified with 1-methyl-pseudouridine (nucleic acid)
chain: ATGATCCCAAGAGAAGAACAGTGGGCACGCGAAATTGGAGCTCAACTCAGACGGATGGCCGACGACCTGAACGCCCAGTACGAGCGGCGGGGACTCTCAGAAGCGAAGCCTGCCACCCCCGAAATCCAGGAAATCGTCGACAAGGTCAAGCCGCAGCTTGAGGAAAAGACCAACGAGACTTACGGAAAACTGGAGGCCGTGCAGTATAAGACCCAAGTGTTGGCCTCCACCAACTACTACATTAAGGTCCGCGCCGGCGATAACAAGTACATGCACCTGAAGGTGTTCAATGGTCCTCCGGGACAGAACGCGGACAGGGTGCTGACTGGCTACCAAGTGGACAAGAACAAGGACGACGAGCTGACGGGCTTCGACTACAAGGATGATGATGACAAA
modifications: FLAG tag, 1-methyl-pseudouridine; Synthetic SQT-PUMA-BH3 mRNA sequence with FLAG epitope tag
interaction with BCL-2 by co-immunoprecipitation (BCL-2): to a lesser extent
interaction with BCL-XL by co-immunoprecipitation (BCL-XL): able interact
co-immunoprecipitation of MCL-1 (MCL-1): able to co-immunoprecipitate
PARP-1 cleavage (primary hepatocytes [1]; LNPs): also induced PARP-1 cleavage in primary hepatocytes
apoptosis (YOYO-3 dye uptake and fluorescence) as a function of time (primary hepatocytes [1]; MC3-LNP-formulated): induce apoptosis
percent body weight change / tolerability [2]: did not significantly impact body weight
apoptosis in combination with sorafenib [3]: neither SQT-BH3 construct, in combination with sorafenib, caused apoptosis
tumor growth inhibition (TGI) (Hep3B SC tumors): 28%
nature of combination effect with sorafenib (Hep3B cells; SQT-PUMA-BH3 68 pM or SQT-Bad-BH3 550pM): synergistic effect
apoptosis (YOYO-3), combination with sorafenib vs sorafenib alone (Hep3B cells; SQT-PUMA-BH3 68 pM or SQT-Bad-BH3 550pM in LNPs, increasing sorafenib tosylate): increased apoptosis of the liver cells as compared to treatment with sorafenib alone
mice killed ([4]; mRNA without miR-122 binding site, dose 10 times lower than 1 mg/kg): 40%
toxicity / tolerable dose / survival ([4]; mice, MC3 LNP formulations, 0.1-3 mg/kg): very toxic over a range of doses
death of the treated animals, time ([4]; mice, MC3 LNP, mRNA without miR-122 binding sites, range of doses): ≤ 5 h
survival rate ([4]; mice, lowest dose of 0.1 mg/kg, mRNA without miR-122 binding sites): approximately 60%
cell death [5]: caused rapid cell death almost immediately following transfection; also recorded: underwent cell death almost immediately following transfection
cell morphology [5]: rounded-up cell morphology that is characteristic of apoptotic cells
percent body weight change / tolerability (systemic TF1a tumors): did not significantly impact body weight
tumor growth (BLI) (systemic TF1a tumors; 3 mg/kg one time per week, 3 mg/kg): showed marked tumor growth regression as compared to both PBS and LNP controls; also recorded: most effective treatment for inhibiting tumor growth, showing greater efficacy than the cytarabine SOC control
median survival (systemic TF1a tumors; post-implant, 3 mg/kg one time per week): median survival had not yet been reached
apoptosis (caspase 3/7) in combination with siMCL1, sorafenib or controls (primary hepatocytes [6]): did not lead to increased apoptosis as compared to treatment with the control SQT-dummy construct
